Measured values as given in patent US20120230990A1 (MERCK SERONO, published 2012).

Assays:
[1] = biological target: T1, human IL-22RA on cells (HepG2 hepatoma cells, normal human keratinocytes, BaF3 cells transfected with human … (human, UniProt Q8N6P7 16-574)); experiment: cell-based or functional assay
T1 sequence: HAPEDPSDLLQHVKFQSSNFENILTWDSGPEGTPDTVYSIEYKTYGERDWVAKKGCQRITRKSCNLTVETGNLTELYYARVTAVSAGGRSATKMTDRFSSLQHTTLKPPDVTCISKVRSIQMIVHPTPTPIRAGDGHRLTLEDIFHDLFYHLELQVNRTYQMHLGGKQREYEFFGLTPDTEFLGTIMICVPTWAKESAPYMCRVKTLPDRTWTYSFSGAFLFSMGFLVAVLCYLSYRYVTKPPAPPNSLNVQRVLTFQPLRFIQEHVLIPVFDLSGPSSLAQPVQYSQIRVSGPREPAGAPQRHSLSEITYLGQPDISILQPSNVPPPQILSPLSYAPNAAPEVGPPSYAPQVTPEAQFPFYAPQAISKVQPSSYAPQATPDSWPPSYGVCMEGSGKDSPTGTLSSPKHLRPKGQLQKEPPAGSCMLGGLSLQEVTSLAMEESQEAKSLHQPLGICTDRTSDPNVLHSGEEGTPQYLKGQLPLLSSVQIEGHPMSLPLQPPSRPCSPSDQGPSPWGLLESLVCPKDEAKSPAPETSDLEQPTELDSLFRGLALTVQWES

[2] = biological target: T2, murine IL-22RA on cells (HEPA1-6 hepatoma cells, BaF3 cells transfected with murine IL-22RA and IL-10RB) (murine, UniProt Q80XZ4 16-581); experiment: cell-based or functional assay
T2 sequence (looked up): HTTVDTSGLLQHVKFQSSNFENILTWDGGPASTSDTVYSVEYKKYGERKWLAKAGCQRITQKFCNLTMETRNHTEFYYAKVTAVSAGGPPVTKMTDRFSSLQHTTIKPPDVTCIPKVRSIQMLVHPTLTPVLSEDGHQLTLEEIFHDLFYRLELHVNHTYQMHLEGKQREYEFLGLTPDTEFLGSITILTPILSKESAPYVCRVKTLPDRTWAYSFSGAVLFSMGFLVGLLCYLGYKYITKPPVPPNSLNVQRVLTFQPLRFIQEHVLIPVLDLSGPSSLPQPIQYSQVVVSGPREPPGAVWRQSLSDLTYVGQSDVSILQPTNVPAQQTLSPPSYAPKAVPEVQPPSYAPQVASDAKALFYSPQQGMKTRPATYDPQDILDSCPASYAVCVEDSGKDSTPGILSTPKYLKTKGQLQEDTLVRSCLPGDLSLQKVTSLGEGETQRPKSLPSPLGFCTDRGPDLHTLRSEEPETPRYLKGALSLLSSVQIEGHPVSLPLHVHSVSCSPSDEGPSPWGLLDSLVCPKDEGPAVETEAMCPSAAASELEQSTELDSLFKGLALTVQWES

IC50, STAT3 phosphorylation assay in human HepG2 hepatoma cells stimulated with recombinant human IL-22 [1]: 0.0552 nM | IC50, STAT3 phosphorylation assay in normal human keratinocytes stimulated with recombinant human IL-22 [1]: 0.061 nM | IC50, proliferation assay in BaF3 cells transfected with human IL-22RA and IL-10RB, cultured with recombinant human IL-22 [1]: 0.317 nM | fold potency against the mouse parental antibody 280.46.3.4, STAT3 phosphorylation assay in HepG2 cells [1]: ~5 fold | fold potency against the mouse parental antibody 280.46.3.4, STAT3 phosphorylation assay in normal human keratinocytes [1]: ~9 fold | fold potency against the mouse parental antibody 280.46.3.4, proliferation of human IL-22 receptor transfected BaF3 cells [1]: 1.7 fold | IC50, STAT3 phosphorylation assay in murine HEPA1-6 hepatoma cells stimulated with recombinant murine IL-22 [2]: 2.1 nM | IC50, proliferation assay in BaF3 cells transfected with murine IL-22RA and IL-10RB, cultured with recombinant murine IL-22 [2]: 0.137 nM | fold potency against the mouse parental antibody 280.46.3.4, proliferation of mouse IL-22 receptor transfected BaF3 cells [2]: 6.2 fold
B1: 280.346.TSY (humanized anti-human IL-22RA antibody comprising 280.VH3-66-46 paired with 280.VK4-1-TSY, human IgG1/kappa) (antibody, V domains shown)
VH: EVQLVESGGGLVQPGGSLRLSCAASGYSITAEYMNWVRQAPGKGLEWIGEINPSTGTTTYNQKFKGRFTISVDQSKNTAYLQMNSLRAEDTAVYYCARFDAYFDYWGQGTLVTVSS
VL: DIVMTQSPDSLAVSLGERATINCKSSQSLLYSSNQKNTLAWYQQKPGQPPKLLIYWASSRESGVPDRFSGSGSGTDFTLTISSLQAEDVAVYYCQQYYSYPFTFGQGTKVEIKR
notes: Produced in CHO cells; also called 280.VH3-66-46/VK4-1-TSY; 280.VH3-66.46 paired with 280.IGKV4-1-TSY
